Starred links: 1 amine or outer side, 2 acyl side, 3 side chain; linkers in the order of their positions; H or OH if unused. No end group written: not given here. *: point of attachment. code X = linker with the sequence GSGSGSG, O=C(CNC(=O)[C@H](CO)NC(=O)CN[*:1])N[C@@H](CO)C(=O)NCC(=O)N[C@@H](CO)C(=O)NCC(=O)[*:2]; Biotin = O=C1N[C@H]2[C@H](CS[C@H]2CCCCC(=O)*)N1
Assays:
factor VIII = factor VIII (Homo sapiens, UniProt P00451); assay: Peptide array of Protein C sequence for peptides binding to factor VIII
Chain of factor VIII (P00451 20-2351, species assumed): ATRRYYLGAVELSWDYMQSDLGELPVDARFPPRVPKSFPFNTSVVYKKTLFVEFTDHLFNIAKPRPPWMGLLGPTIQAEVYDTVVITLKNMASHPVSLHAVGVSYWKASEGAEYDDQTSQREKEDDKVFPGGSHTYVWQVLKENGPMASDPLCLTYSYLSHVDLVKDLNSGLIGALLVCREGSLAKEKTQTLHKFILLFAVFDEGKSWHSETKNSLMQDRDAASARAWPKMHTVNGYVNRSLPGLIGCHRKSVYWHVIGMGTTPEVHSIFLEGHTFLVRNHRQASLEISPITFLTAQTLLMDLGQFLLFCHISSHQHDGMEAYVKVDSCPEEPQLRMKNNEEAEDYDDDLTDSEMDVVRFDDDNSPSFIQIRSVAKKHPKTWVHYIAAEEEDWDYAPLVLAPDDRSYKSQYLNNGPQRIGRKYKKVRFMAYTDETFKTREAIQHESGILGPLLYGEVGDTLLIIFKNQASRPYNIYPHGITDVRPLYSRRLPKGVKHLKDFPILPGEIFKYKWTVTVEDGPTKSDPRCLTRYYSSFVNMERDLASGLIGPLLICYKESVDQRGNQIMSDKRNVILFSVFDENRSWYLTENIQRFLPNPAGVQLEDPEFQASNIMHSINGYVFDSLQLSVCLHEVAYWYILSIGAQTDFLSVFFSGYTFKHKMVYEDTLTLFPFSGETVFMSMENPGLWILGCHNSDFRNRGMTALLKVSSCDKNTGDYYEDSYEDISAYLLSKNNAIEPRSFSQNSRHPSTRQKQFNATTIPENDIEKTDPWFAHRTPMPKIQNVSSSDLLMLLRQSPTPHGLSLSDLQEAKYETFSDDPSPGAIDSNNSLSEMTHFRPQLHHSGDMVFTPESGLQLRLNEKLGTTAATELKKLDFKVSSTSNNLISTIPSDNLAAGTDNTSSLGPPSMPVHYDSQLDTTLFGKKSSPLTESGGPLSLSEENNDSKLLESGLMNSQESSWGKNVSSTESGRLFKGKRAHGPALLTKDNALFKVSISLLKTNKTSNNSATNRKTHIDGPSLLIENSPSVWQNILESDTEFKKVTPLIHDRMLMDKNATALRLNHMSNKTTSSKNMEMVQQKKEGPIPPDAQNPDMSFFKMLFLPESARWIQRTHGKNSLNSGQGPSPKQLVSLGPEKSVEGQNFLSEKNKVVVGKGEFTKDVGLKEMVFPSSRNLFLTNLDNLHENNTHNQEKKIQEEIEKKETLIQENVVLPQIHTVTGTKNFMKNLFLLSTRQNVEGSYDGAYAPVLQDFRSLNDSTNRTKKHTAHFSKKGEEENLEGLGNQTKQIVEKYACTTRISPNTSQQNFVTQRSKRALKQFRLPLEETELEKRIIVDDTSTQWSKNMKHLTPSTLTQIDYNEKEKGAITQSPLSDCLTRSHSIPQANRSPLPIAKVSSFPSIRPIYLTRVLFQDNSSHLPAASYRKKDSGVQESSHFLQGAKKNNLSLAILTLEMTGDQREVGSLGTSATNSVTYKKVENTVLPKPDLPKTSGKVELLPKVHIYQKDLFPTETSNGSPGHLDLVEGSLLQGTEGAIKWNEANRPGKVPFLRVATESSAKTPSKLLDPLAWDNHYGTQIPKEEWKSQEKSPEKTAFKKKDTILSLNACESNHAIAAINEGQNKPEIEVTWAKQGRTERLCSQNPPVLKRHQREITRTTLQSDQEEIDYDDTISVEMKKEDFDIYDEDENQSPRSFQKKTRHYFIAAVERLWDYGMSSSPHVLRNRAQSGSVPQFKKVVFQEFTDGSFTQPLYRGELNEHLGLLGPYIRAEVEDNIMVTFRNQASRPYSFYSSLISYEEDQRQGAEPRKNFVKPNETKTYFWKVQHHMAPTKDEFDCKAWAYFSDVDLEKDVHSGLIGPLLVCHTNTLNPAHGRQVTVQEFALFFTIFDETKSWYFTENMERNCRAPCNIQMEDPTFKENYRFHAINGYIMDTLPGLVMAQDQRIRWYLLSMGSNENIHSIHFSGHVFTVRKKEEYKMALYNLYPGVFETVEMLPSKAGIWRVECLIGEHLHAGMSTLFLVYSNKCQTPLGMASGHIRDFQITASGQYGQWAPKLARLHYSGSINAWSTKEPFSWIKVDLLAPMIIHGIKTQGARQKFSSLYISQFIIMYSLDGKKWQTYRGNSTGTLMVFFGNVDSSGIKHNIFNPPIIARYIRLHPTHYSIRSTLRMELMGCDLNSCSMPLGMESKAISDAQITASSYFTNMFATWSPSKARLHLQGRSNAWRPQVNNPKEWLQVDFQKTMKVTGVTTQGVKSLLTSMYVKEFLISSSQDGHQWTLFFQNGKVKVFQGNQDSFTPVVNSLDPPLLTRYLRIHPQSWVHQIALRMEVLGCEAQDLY
Source text: (§1) In this manner, the sequences of Protein A, Protein G, Protein H and FcRn were investigated for peptides binding to IgG. In addition, the sequence of Protein C was investigated for peptides binding to factor V and factor VIII.

factor V = factor V (Homo sapiens, UniProt P12259); assay: Peptide array of Protein C sequence for peptides binding to factor V
Chain of factor V (P12259 29-2224): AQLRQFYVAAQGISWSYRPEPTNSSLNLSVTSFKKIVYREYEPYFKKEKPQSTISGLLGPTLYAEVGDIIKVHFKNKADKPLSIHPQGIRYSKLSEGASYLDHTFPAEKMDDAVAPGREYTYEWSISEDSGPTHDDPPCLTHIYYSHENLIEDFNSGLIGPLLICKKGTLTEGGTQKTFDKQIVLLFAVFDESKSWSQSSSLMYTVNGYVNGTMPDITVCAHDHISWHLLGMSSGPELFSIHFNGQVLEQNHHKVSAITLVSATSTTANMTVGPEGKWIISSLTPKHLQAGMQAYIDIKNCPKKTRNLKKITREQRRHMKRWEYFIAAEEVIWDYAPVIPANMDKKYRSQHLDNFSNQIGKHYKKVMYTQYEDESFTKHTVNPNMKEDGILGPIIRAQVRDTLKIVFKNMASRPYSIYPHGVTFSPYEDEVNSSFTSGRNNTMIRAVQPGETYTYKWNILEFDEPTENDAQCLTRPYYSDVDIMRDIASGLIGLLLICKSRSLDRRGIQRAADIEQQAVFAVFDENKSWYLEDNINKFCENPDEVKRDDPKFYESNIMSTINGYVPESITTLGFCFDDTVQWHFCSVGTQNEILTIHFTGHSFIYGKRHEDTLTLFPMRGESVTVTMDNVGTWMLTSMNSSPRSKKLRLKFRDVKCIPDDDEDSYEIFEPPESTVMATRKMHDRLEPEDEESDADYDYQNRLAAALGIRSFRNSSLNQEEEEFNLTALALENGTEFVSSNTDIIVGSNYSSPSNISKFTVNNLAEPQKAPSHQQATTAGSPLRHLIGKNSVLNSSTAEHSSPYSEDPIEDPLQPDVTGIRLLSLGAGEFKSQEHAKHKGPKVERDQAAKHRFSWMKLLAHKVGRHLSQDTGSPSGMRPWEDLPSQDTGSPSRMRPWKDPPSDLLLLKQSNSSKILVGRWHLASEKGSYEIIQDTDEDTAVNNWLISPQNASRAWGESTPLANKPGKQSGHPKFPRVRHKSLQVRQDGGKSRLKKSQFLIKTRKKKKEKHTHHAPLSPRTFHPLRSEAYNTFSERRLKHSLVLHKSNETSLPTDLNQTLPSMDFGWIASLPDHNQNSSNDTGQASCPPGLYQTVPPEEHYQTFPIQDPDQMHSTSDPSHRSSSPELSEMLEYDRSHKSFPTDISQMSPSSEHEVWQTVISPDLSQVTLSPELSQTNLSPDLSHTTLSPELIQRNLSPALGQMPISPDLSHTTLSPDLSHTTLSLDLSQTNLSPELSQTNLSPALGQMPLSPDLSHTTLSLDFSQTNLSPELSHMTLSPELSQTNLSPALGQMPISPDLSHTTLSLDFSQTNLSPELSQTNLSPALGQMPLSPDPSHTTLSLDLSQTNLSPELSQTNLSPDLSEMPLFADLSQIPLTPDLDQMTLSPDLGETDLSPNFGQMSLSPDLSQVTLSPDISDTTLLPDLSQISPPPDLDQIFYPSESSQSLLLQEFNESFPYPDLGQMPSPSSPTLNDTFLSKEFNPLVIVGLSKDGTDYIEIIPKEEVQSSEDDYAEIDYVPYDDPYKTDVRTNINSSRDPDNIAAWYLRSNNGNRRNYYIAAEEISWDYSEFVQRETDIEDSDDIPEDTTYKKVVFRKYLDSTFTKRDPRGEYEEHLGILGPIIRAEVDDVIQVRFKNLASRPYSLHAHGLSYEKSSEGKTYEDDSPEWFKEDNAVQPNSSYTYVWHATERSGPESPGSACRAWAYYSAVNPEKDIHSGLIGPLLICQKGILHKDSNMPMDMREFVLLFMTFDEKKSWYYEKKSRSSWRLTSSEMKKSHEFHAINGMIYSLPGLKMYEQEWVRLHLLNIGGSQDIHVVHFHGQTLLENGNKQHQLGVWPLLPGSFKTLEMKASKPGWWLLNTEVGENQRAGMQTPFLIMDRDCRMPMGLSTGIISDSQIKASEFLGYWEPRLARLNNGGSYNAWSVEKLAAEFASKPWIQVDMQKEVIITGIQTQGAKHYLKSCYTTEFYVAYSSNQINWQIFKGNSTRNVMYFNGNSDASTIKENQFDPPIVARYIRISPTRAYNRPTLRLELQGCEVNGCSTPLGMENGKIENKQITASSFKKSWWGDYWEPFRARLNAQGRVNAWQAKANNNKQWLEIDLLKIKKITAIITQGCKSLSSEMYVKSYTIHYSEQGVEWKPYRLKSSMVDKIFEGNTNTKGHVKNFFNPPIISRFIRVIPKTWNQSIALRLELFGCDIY
Source text: as §1

factor V or factor VIII = assay: Peptide array of Protein C sequence, binding affinity towards factor V or factor VIII; settings: compared with sequences i) to iii)
Source text: as §1

IgG = IgG binding to and release from peptide-modified streptavidin latex particles, bound and eluted IgG analysed by ELISA
Method: Subsequently, it was evaluated whether IgG can be bound to and released from the thus prepared modified latex. For this purpose, 10 mg of the modified latex particles were mixed with 400 μl of an IgG solution containing 0.22 mg/ml IgG. After allowing the mixture to react at room temperature for one hour, the supernatant solution was removed from the latex beads and the beads were washed to remove any non-bound IgG. The beads were then evaluated for bound IgG.
In the next step, the beads were added to 400 μl of an elution buffer (25 mM acetate buffer at pH 3.0) and shaken for one hour at room temperature. The supernatant was then removed from the beads and the beads were cleaned by washing. Both the bound and eluted IgG was an analysed by an ELISA assay.

**Q.** LEGYDLRRWEKWE was tested. Which “binding to factor VIII” value (factor VIII) did it give?
**A.** binds equally strong

**Q.** And the “binding to factor V” value (factor V)?
**A.** binds equally strong

**Q.** With HNYGVYTKVSRYL as the substance, how does the “binding to factor VIII” value (factor VIII) read?
**A.** not significantly binding

**Q.** With TGWGYHSSREKEA [v)] as the substance, how does the “binding affinity towards factor V or factor VIII” value (factor V or factor VIII) read?
**A.** weaker

**Q.** With “bio-X-QQQLITIKQISEASRKSLSRD ({Biotin-code X}-QQQLITIKQISEASRKSLSRD) [Peptide 2, biotin-labelled peptide; bio = biotin, X = linker GSGSGSG]” as the substance, how does the IgG bound (IgG; 10 mg peptide-modified latex, 400 μl of 0.22 mg/ml IgG, 1 h room temperature) read?
**A.** 55 µg

**Q.** What about the “IgG Elution” value (IgG; 400 μl 25 mM acetate buffer pH 3.0, 1 h room temperature) of the same substance?
**A.** 52 µg

**Q.** And the “Recovery [IgG]” value (IgG; eluted relative to bound IgG)?
**A.** 95%

**Q.** Which “binding affinity towards factor V or factor VIII” value (factor V or factor VIII) does the source give for FVHPNYSKSTTDNDIALLH [iv)] here?
**A.** weaker

**Q.** Which “selectivity for factor VIII” value (factor VIII; versus factor V) does the source give for GDSGGPMVASFHG here?
**A.** high selectivity

**Q.** And the “binding to factor V” value (factor V)?
**A.** not significantly bind

From patent US20160067674A1, “LIGANDS AND METHODS FOR ISOLATING OR REMOVING PROTEINS” (PreviPharma AG, priority 2014, published 2016)
